Measurements reported in patent EP2004352B1 (Palatin Technologies, Inc., dated 2012).
Bridge positions count the residues as written; N and C are the ends.

How the values were obtained:
[1] = biological target: T1, human natriuretic peptide receptor A (NPRA) (human, UniProt P16066 33-1061); test: cell-based or functional assay
T1 sequence (looked up): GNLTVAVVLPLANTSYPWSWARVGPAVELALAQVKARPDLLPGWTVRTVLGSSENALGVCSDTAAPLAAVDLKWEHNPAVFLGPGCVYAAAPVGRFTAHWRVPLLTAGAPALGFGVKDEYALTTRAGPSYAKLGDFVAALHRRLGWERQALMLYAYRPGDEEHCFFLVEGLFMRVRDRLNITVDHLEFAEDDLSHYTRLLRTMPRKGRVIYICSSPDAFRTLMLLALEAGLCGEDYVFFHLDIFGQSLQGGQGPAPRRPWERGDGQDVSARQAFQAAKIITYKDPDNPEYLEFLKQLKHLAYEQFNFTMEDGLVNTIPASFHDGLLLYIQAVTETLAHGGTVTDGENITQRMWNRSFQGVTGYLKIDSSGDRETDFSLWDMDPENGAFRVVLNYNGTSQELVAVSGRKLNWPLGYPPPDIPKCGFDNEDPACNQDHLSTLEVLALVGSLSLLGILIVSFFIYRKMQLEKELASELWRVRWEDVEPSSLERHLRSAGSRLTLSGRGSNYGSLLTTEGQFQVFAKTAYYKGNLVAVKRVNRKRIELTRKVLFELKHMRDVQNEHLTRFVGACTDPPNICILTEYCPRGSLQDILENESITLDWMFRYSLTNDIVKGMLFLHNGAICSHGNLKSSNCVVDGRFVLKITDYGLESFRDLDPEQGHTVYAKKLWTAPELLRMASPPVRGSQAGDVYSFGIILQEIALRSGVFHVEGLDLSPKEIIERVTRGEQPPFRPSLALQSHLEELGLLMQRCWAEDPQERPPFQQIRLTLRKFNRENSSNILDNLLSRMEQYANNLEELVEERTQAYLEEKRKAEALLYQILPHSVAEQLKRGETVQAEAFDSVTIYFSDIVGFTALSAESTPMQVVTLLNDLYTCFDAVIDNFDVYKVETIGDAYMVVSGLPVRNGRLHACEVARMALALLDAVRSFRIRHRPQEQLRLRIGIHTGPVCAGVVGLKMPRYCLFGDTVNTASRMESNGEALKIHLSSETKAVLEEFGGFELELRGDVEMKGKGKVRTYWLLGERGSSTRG

[2] = biological target: T1, human natriuretic peptide receptor A …; test: competition with [125I]-ANP on HEK-hNPRA membrane homogenates

B1: mini-ANP, H-Met-cyclo(Cys-His-Phe-Gly-Gly-Arg-Met-Asp-Arg-Ile-Ser-Cys)-Tyr-Arg-NH2 (peptide)
peptide: H-MCHFGGRMDRISCYR-NH2
modifications: disulfide 2-13
SMILES: CC[C@H](C)[C@@H]1NC(=O)[C@H](CCCNC(=N)N)NC(=O)[C@H](CC(=O)O)NC(=O)[C@H](CCSC)NC(=O)[C@H](CCCNC(=N)N)NC(=O)CNC(=O)CNC(=O)[C@H](Cc2ccccc2)NC(=O)[C@H](Cc2c[nH]cn2)NC(=O)[C@@H](NC(=O)[C@@H](N)CCSC)CSSC[C@@H](C(=O)N[C@@H](Cc2ccc(O)cc2)C(=O)N[C@@H](CCCNC(=N)N)C(N)=O)NC(=O)[C@H](CO)NC1=O
notes: also called min-ANP; parent polypeptide
EC50 (cGMP accumulation) [1]: 3.3 nM | Ki [2]: 0.6 nM
